Measured values as given in patent publication US20050142135A1, “Agents and methods for modulating interactions between gonadotropin hormones and receptors” (University of Kentucky Research Foundation, priority 2003, published 2005).
Each block holds one molecule with its values, some of them ahead of it.

How the values were obtained:
human FSHR [1] = test: ^125I-FSH binding to wild type and mutant FSH receptors on intact stably transfected HEK 293 cells; conditions: for FSH binding / Kd compared with the wild type receptor, in words: intact HEK 293 cells
Protocol: (§1) Mutant FSHR cDNAs were prepared in the pSELECT vector using the Altered Sites Mutagenesis system (Promega), sequenced on a Beckman CEQ 2000XL capillary sequencer, subcloned into pcDNA3 (Invitrogen), and sequenced again to verify mutation sequences. […] Wild type and mutant receptor constructs were transfected into HEK 293 cells by the calcium phosphate method as previously described. Stable cell lines were established in minimum essential medium containing 10% horse serum and 500 μg/ml of G418. These cells were used for hormone binding, cAMP production. All assays were carried out in duplicate and repeated 4-5 times, and means±S.D. were calculated.
(§2) The Kd values were determined by Scatchard plots. For intracellular cAMP assay, cells were washed twice with Dulbecco's modified Eagle's medium and incubated in the medium containing 0.1 μg/ml isobutylmethylxanthine for 15 mm. Increasing concentrations of FSH were then added and incubation was continued for 45 mm at 37° C. After removing the medium, the cells were rinsed once with fresh medium without isobutylmethylxanthine, lysed in 70% ethanol, freeze-thawed in liquid nitrogen, and scraped.
Each mutant human FSHR cDNA was prepared in a pSELECT vector using the non-PCR based Altered Sites Mutagenesis System (Promega), sequenced on a Beckman CEQ 2000XL capillary sequencer and subcloned into pcDNA3 (Invitrogen) as described. After subcloning pcDNA3 the mutant cDNAs were sequenced again. Plasmids were transfected into human embryonic kidney (HEK) 293 cells by the calcium phosphate method. Stable cell lines were established in minimum essential medium containing 10% horse serum and 500 μg/ml of G-418, and then used for hormone binding and cAMP assay. All assays were carried out in duplicate and repeated 4-6 times. Means and standard variations were calculated.
(§3) Human FSH (the National Hormone and Pituitary Program) was radioiodinated as previously described for radioiodination of hCG. […] The Kd values were determined by Scatchard plots. Truncated exodomain was solubilized in Nonidet P-40 and assayed for hormone binding as described previously. For intracellular cAMP assay, cells were washed twice with Dulbecco's modified Eagle's media and incubated in the media containing isobutylmethylxanthine (0.1 mg/ml) for 15 minutes. Increasing concentrations of FSH were then added and the incubation was continued for 45 minutes at 37° C. After removing the media, the cells were rinsed once with fresh media without isobutylmethylxanthine, lysed in 70% ethanol, freeze-thawed in liquid nitrogen, and scraped. […] Exoloop 3 of FSHR was modeled based on the crystal structure of rhodopsin as a template.

human FSHR [2] = test: FSH dependent intracellular cAMP assay, wild type and mutant FSHR in HEK 293 cells; type: cell-based; conditions: for FSH dependent cAMP induction / EC50 compared with the wild type receptor, in words: HEK 293 cells
Protocol: as §1, §2, §3

B1: del: human FSHR deletion mutant, L583 deleted (protein, UniProt P23945 18-695, looked up, variant L583*)
Follicle-stimulating hormone …: CHHRICHCSNRVFLCQESKVTEIPSDLPRNAIELRFVLTKLRVIQKGAFSGFGDLEKIEISQNDVLEVIEADVFSNLPKLHEIRIEKANNLLYINPEAFQNLPNLQYLLISNTGIKHLPDVHKIHSLQKVLLDIQDNINIHTIERNSFVGLSFESVILWLNKNGIQEIHNCAFNGTQLDELNLSDNNNLEELPNDVFHGASGPVILDISRTRIHSLPSYGLENLKKLRARSTYNLKKLPTLEKLVALMEASLTYPSHCCAFANWRRQISELHPICNKSILRQEVDYMTQARGQRSSLAEDNESSYSRGFDMTYTEFDYDLCNEVVDVTCSPKPDAFNPCEDIMGYNILRVLIWFISILAITGNIIVLVILTTSQYKLTVPRFLMCNLAFADLCIGIYLLLIASVDIHTKSQYHNYAIDWQTGAGCDAAGFFTVFASELSVYTLTAITLERWHTITHAMQLDCKVQLRHAASVMVMGWIFAFAAALFPIFGISSYMKVSICLPMDIDSPLSQLYVMSLLVLNVLAFVVICGCYIHIYLTVRNPNIVSSSSDTRIAKRMAMLIFTDFCMAPISFFAISASLKVPLITVSKAKILLVLFHPINSCANPFLYAIFTKNFRRDFFILLSKCGCYEMQAQIYRTETSSTVHNTHPRNGHCSSAPRVTSGSTYILVPLSHLAQN
improvement of hormone binding affinity (decrease of Kd) compared with wild type (human FSHR [1]; FSH binding, mutant versus wild type FSHR): more than 4 fold

B2: R^11A: human FSHR with Ala substituted for R11 (protein)
chain: CHHRICHCSNAVFLCQESKVTEIPSDLPRNAIELRFVLTKLRVIQKGAFSGFGDLEKIEISQNDVLEVIEADVFSNLPKLHEIRIEKANNLLYINPEAFQNLPNLQYLLISNTGIKHLPDVHKIHSLQKVLLDIQDNINIHTIERNSFVGLSFESVILWLNKNGIQEIHNCAFNGTQLDELNLSDNNNLEELPNDVFHGASGPVILDISRTRIHSLPSYGLENLKKLRARSTYNLKKLPTLEKLVALMEASLTYPSHCCAFANWRRQISELHPICNKSILRQEVDYMTQARGQRSSLAEDNESSYSRGFDMTYTEFDYDLCNEVVDVTCSPKPDAFNPCEDIMGYNILRVLIWFISILAITGNIIVLVILTTSQYKLTVPRFLMCNLAFADLCIGIYLLLIASVDIHTKSQYHNYAIDWQTGAGCDAAGFFTVFASELSVYTLTAITLERWHTITHAMQLDCKVQLRHAASVMVMGWIFAFAAALFPIFGISSYMKVSICLPMDIDSPLSQLYVMSLLVLNVLAFVVICGCYIHIYLTVRNPNIVSSSSDTRIAKRMAMLIFTDFLCMAPISFFAISASLKVPLITVSKAKILLVLFHPINSCANPFLYAIFTKNFRRDFFILLSKCGCYEMQAQIYRTETSSTVHNTHPRNGHCSSAPRVTSGSTYILVPLSHLAQN
FSH binding / Kd compared with the wild type receptor, in words (human FSHR [1]): improved hormone binding
FSH binding / Kd compared with the wild type receptor, in words (human FSHR [1]; listed as FSHR^R11A): lower than the wild type value

FSH dependent cAMP induction / EC50 compared with the wild type receptor, in words (human FSHR [2]): lower than the wild type value
B3: V^12A: human FSHR with Ala substituted for V12 (protein)
chain: CHHRICHCSNRAFLCQESKVTEIPSDLPRNAIELRFVLTKLRVIQKGAFSGFGDLEKIEISQNDVLEVIEADVFSNLPKLHEIRIEKANNLLYINPEAFQNLPNLQYLLISNTGIKHLPDVHKIHSLQKVLLDIQDNINIHTIERNSFVGLSFESVILWLNKNGIQEIHNCAFNGTQLDELNLSDNNNLEELPNDVFHGASGPVILDISRTRIHSLPSYGLENLKKLRARSTYNLKKLPTLEKLVALMEASLTYPSHCCAFANWRRQISELHPICNKSILRQEVDYMTQARGQRSSLAEDNESSYSRGFDMTYTEFDYDLCNEVVDVTCSPKPDAFNPCEDIMGYNILRVLIWFISILAITGNIIVLVILTTSQYKLTVPRFLMCNLAFADLCIGIYLLLIASVDIHTKSQYHNYAIDWQTGAGCDAAGFFTVFASELSVYTLTAITLERWHTITHAMQLDCKVQLRHAASVMVMGWIFAFAAALFPIFGISSYMKVSICLPMDIDSPLSQLYVMSLLVLNVLAFVVICGCYIHIYLTVRNPNIVSSSSDTRIAKRMAMLIFTDFLCMAPISFFAISASLKVPLITVSKAKILLVLFHPINSCANPFLYAIFTKNFRRDFFILLSKCGCYEMQAQIYRTETSSTVHNTHPRNGHCSSAPRVTSGSTYILVPLSHLAQN

EC50 value of cAMP induction, fold higher than wild type (human FSHR [2]; FSH dependent cAMP): 23 fold
B4: I^23A: human FSHR with Ala substituted for I23 (protein)
chain: CHHRICHCSNRVFLCQESKVTEAPSDLPRNAIELRFVLTKLRVIQKGAFSGFGDLEKIEISQNDVLEVIEADVFSNLPKLHEIRIEKANNLLYINPEAFQNLPNLQYLLISNTGIKHLPDVHKIHSLQKVLLDIQDNINIHTIERNSFVGLSFESVILWLNKNGIQEIHNCAFNGTQLDELNLSDNNNLEELPNDVFHGASGPVILDISRTRIHSLPSYGLENLKKLRARSTYNLKKLPTLEKLVALMEASLTYPSHCCAFANWRRQISELHPICNKSILRQEVDYMTQARGQRSSLAEDNESSYSRGFDMTYTEFDYDLCNEVVDVTCSPKPDAFNPCEDIMGYNILRVLIWFISILAITGNIIVLVILTTSQYKLTVPRFLMCNLAFADLCIGIYLLLIASVDIHTKSQYHNYAIDWQTGAGCDAAGFFTVFASELSVYTLTAITLERWHTITHAMQLDCKVQLRHAASVMVMGWIFAFAAALFPIFGISSYMKVSICLPMDIDSPLSQLYVMSLLVLNVLAFVVICGCYIHIYLTVRNPNIVSSSSDTRIAKRMAMLIFTDFLCMAPISFFAISASLKVPLITVSKAKILLVLFHPINSCANPFLYAIFTKNFRRDFFILLSKCGCYEMQAQIYRTETSSTVHNTHPRNGHCSSAPRVTSGSTYILVPLSHLAQN
maximal cAMP level, fold lower than wild type (human FSHR [2]; FSH dependent cAMP): 2.6 fold

FSH dependent cAMP induction / EC50 compared with the wild type receptor, in words (human FSHR [2]): lower than the wild type value
B5: F^13A: human FSHR with Ala substituted for F13 (protein)
chain: CHHRICHCSNRVALCQESKVTEIPSDLPRNAIELRFVLTKLRVIQKGAFSGFGDLEKIEISQNDVLEVIEADVFSNLPKLHEIRIEKANNLLYINPEAFQNLPNLQYLLISNTGIKHLPDVHKIHSLQKVLLDIQDNINIHTIERNSFVGLSFESVILWLNKNGIQEIHNCAFNGTQLDELNLSDNNNLEELPNDVFHGASGPVILDISRTRIHSLPSYGLENLKKLRARSTYNLKKLPTLEKLVALMEASLTYPSHCCAFANWRRQISELHPICNKSILRQEVDYMTQARGQRSSLAEDNESSYSRGFDMTYTEFDYDLCNEVVDVTCSPKPDAFNPCEDIMGYNILRVLIWFISILAITGNIIVLVILTTSQYKLTVPRFLMCNLAFADLCIGIYLLLIASVDIHTKSQYHNYAIDWQTGAGCDAAGFFTVFASELSVYTLTAITLERWHTITHAMQLDCKVQLRHAASVMVMGWIFAFAAALFPIFGISSYMKVSICLPMDIDSPLSQLYVMSLLVLNVLAFVVICGCYIHIYLTVRNPNIVSSSSDTRIAKRMAMLIFTDFLCMAPISFFAISASLKVPLITVSKAKILLVLFHPINSCANPFLYAIFTKNFRRDFFILLSKCGCYEMQAQIYRTETSSTVHNTHPRNGHCSSAPRVTSGSTYILVPLSHLAQN

FSH dependent cAMP induction / EC50 compared with the wild type receptor, in words (human FSHR [2]): lower than the wild type value
B6: S^9A: human FSHR with Ala substituted for S9 (protein)
chain: CHHRICHCANRVFLCQESKVTEIPSDLPRNAIELRFVLTKLRVIQKGAFSGFGDLEKIEISQNDVLEVIEADVFSNLPKLHEIRIEKANNLLYINPEAFQNLPNLQYLLISNTGIKHLPDVHKIHSLQKVLLDIQDNINIHTIERNSFVGLSFESVILWLNKNGIQEIHNCAFNGTQLDELNLSDNNNLEELPNDVFHGASGPVILDISRTRIHSLPSYGLENLKKLRARSTYNLKKLPTLEKLVALMEASLTYPSHCCAFANWRRQISELHPICNKSILRQEVDYMTQARGQRSSLAEDNESSYSRGFDMTYTEFDYDLCNEVVDVTCSPKPDAFNPCEDIMGYNILRVLIWFISILAITGNIIVLVILTTSQYKLTVPRFLMCNLAFADLCIGIYLLLIASVDIHTKSQYHNYAIDWQTGAGCDAAGFFTVFASELSVYTLTAITLERWHTITHAMQLDCKVQLRHAASVMVMGWIFAFAAALFPIFGISSYMKVSICLPMDIDSPLSQLYVMSLLVLNVLAFVVICGCYIHIYLTVRNPNIVSSSSDTRIAKRMAMLIFTDFLCMAPISFFAISASLKVPLITVSKAKILLVLFHPINSCANPFLYAIFTKNFRRDFFILLSKCGCYEMQAQIYRTETSSTVHNTHPRNGHCSSAPRVTSGSTYILVPLSHLAQN
